Reference: PMC9784018, “Rational Strategy for Designing Peptidomimetic Small Molecules Based on Cyclic Peptides Targeting Protein–Protein Interaction between CTLA-4 and B7-1” (Pharmaceuticals, 2022)
Read-outs that look alike come from different tables or passages of the source. Positions of bridges follow the written chain, without caps; N, C: chain ends. MBP = not defined here

Assays:
Assay type in all cases: binding
[1] = target: T1, interaction between CTLA-4 and B7-1 (Homo sapiens, UniProt P16410); test: CTLA-4:B7-1[Biotinylated] Inhibitor Screening Assay (BPS Bioscience kit)
T1 construct: purchased BPS Bioscience Inc
T1 sequence (P16410 36-161 limits assumed): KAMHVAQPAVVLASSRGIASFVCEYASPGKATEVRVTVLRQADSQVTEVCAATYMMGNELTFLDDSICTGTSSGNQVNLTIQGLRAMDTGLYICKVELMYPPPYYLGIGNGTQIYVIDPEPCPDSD
Protocol: We prepared the C4m-3127 cyclic peptide using chemical synthesis and examined its properties. First, the inhibitory activity was tested using a kit (CTLA-4:B7-1[Biotinylated] Inhibitor Screening Assay, BPS Bioscience Inc.) (Figure 5A). […] In a sequence of C4m-3127, the GG linker behind C-terminal Cys had mutated into Glu and Arg.
A cyclic peptide with a low EC50 value was synthesized by adding glycine to the N-terminus at Toray Research Center.
(B) Flow cytometry affinity analysis.

[2] = target: T2, CTLA-4 (Homo sapiens, UniProt P16410); test: ELISA-based determination of EC50 value of MBP–peptide–His-tag fusion constructs
T2 sequence (P16410 36-223): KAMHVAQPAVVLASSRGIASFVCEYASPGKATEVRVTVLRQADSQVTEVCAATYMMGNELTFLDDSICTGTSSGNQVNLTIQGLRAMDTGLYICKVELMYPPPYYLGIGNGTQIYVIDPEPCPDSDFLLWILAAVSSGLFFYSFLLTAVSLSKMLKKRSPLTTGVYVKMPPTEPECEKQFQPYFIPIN
Protocol: Peptides with binding specificity for CTLA-4 were overexpressed as fusion proteins with MBP at the N-terminus and His-tag at the C-terminus. After BL21(DE3) E. coli cells were transformed, the fusion constructs were grown in 200 mL of 2xYT/[…] ampicillin at 37 °C until an OD600 of 0.5–0.8 was reached. Then, IPTG (0.5 mM) was added. The broth was incubated at 25 °C with shaking overnight. After the cell broth was centrifuged, the pellet was resuspended in 20 mM Tris-HCl pH 7.5/500 mM NaCl and sonicated (Bioruptor UCD-250, Sonicbio Co. Ltd., Kanagawa, Japan). The sample was centrifuged, then the supernatant was purified on Ni Sepharose^TM 6FF (Cytiva, Tokyo, Japan). The purified sample was buffer exchanged to PBS by dialysis and quantified using a kit (BCA Protein Assay Kit, Thermo Fisher Scientific, Waltham, MA, USA).
CTLA-4 (5 μg/mL) was coated onto a NUNC® Maxisoap^TM 384 well plate and incubated at 4 °C overnight. After the wells were washed twice with TBS/0.05% Tween-20, they were blocked with 100 μL of TBS/0.05% Tween-20/5% skim milk by incubating at RT for 1 h with shaking. […] The absorbance was measured at 450 nm/650 nm with a microplate reader (Infinite F200, Tecan Japan Co., Ltd., Kanagawa, Japan). The absorbance versus the concentration of MBP–peptide–His-tag fusion was found. The midpoint concentration was determined as the half-maximal effective concentration (EC50) value.

[3] = target: T2, CTLA-4; test: E. coli lysate ELISA of MBP–peptide fusion proteins; details: alanine mutants of C4m-310044 as MBP–peptide–His-tag fusion protein, compared with C4m-310044
Text: We generated 14 alanine mutants as an MBP–peptide–His-tag fusion protein (Supplementary Figure S1A), and systematically investigated the effects of alanine substitution by lysate ELISA (Supplementary Figure S1B). […] These eight residues were regarded as important for the interaction between C4m-310044 peptide and CTLA-4. Of the eight residues, six (H2, P3, L5, S9, H11, and F12) were highly conserved even after affinity maturation of C4-302 (Figure 4). These six amino acids were essential residues for binding with CTLA-4. […] Neither of these two residues is involved in binding, but they seem to contribute to affinity. […]
(B) 14 variants shown in (A) were expressed as the MBP-peptide fusion protein. The binding activity of each on CTLA-4 was evaluated using lysate ELISA. The BL21(DE3) E. coli cells transformed with each alanine scanning mutant were grown in 100 μL of 2xYT/50 μg/mL ampicillin at 37 °C until OD600 of 0.5–0.8 was reached. After IPTG (0.5 mM) was added, the broth was incubated at 25 °C, with shaking overnight. The cell broth was lysed using lysis buffer (5 mg/mL lysozyme (FUJIFILM Wako) in PBS, 50% BugBuster ® (v/v) (Merck Millipore) at RT for 2 h, with shaking. The lysate was blocked with TBS/0.05% Tween-20/12.5% skim milk by incubating at RT for 0.5 h, shaking, then added to CTLA-4-immobilized wells on 384-plate and incubated at RT for 1.5 h. After washing and incubation with anti-FLAG M2 ®-peroxidase antibody (1:10,000; Sigma Aldrich) at RT for 1 h, the absorbance at 450 nm/ 650 nm was read with a microplate reader through the reaction with 1x TMB substrate solution and 2N

[4] = inhibition of CTLA-4:B7-1 interaction, luminescence, four-parameter logistic fit, read-out: IC50

Molecule	absorbance in lysate ELISA [3]	also measured
CC(C)[C@H]1ON(C(=O)OCc2ccccc2)[C@H]2CN(CCc3ccccc3)C(=O)[C@H](Cc3c[nH]cn3)N2C1=O [PGF00432, Benzyl (3R,6S,9aS)-6-((1H-imidazol-4-yl)methyl)-3-isopropyl-4,7-dioxo-8-phenethylhexahydropyrazino [2,1-c][1,2,4]oxadiazine-1(6H)-carboxylate]		IC50 [1, 4]: 294 µM
CC(C)[C@H]1ON(C(=O)OCc2ccccc2)[C@H]2CN(CCc3ccccc3)C(=O)[C@H](CCCNC(=N)N)N2C1=O [PGF00452, Benzyl (3R,6S,9aS)-6-(3-guanidinopropyl)-3-isopropyl-4,7-dioxo-8-phenethylhexahydropyrazino [2,1-c][1,2,4]oxadiazine-1(6H)-carboxylate]		IC50 [1, 4]: 147 µM
N=C(N)NCCC[C@H]1C(=O)N(CCc2ccccc2)C[C@@H]2N(C(=O)OCc3ccccc3)O[C@H](CC3CCCCC3)C(=O)N21 [PGF00478, Benzyl (3R,6S,9aS)-3-(cyclohexylmethyl)-6-(3-guanidinopropyl)-4,7-dioxo-8-phenethylhexahydropyrazino [2,1-c][1,2,4]oxadiazine-1(6H)-carboxylate]		IC50 [1, 4]: 80 µM; IC50 ([1]; values printed in Figure 7, read-out: IC50, CTLA-4/B7-1 interaction inhibitory activity): 60 µM
C4m-3127: best binder clone from affinity maturation of C4-302, random loop MHPFLPIVSHHF, expressed as MBP fusion protein ({MBP}-CMHPFLPIVSHHFCER-{His‑tag}; disulfide 1-14 (inferred); not fully specified; reading uncertain)		affinity relative to C4-302 ([2]; MBP fusion protein, times greater affinity than C4-302): 50 times; EC50 ([2]; purified MBP–peptide–His-tag fusion protein, ELISA on immobilized CTLA-4): 0.0747 µM; IC50 ([1]; inhibition of CTLA-4:B7-1 interaction, luminescence, four-parameter logistic fit, listed as MBP–C4m-3127 peptide–His-tag fusion protein, read-out: IC50): 1.36 µM; IC50 [1, 4]: 11.5 µM
F4A: alanine mutant of C4m-310044 as MBP–peptide–His-tag fusion protein ({MBP}-CLHPALPIVSHHFCGR-{His‑tag}; disulfide 1-14 (inferred); reading uncertain)	same level of absorbance with C4m-310044	
F12A: alanine mutant of C4m-310044 as MBP–peptide–His-tag fusion protein ({MBP}-CLHPFLPIVSHHACGR-{His‑tag}; disulfide 1-14 (inferred); reading uncertain)	marked decrease in absorbance	
H2A: alanine mutant of C4m-310044 as MBP–peptide–His-tag fusion protein ({MBP}-CLAPFLPIVSHHFCGR-{His‑tag}; disulfide 1-14 (inferred); reading uncertain)	marked decrease in absorbance	
H11A: alanine mutant of C4m-310044 as MBP–peptide–His-tag fusion protein ({MBP}-CLHPFLPIVSHAFCGR-{His‑tag}; disulfide 1-14 (inferred); reading uncertain)	marked decrease in absorbance	
P3A: alanine mutant of C4m-310044 as MBP–peptide–His-tag fusion protein ({MBP}-CLHAFLPIVSHHFCGR-{His‑tag}; disulfide 1-14 (inferred); reading uncertain)	marked decrease in absorbance	
R(+2)A: alanine mutant of C4m-310044 as MBP–peptide–His-tag fusion protein ({MBP}-CLHPFLPIVSHHFCGA-{His‑tag}; disulfide 1-14 (inferred); reading uncertain)	same level of absorbance with C4m-310044	
V8A: alanine mutant of C4m-310044 as MBP–peptide–His-tag fusion protein ({MBP}-CLHPFLPIASHHFCGR-{His‑tag}; disulfide 1-14 (inferred); reading uncertain)	same level of absorbance with C4m-310044	

Continued, in another order:

absorbance in lysate ELISA [3]	Molecule	also measured
same level of absorbance with C4m-310044	G(+1)A: alanine mutant of C4m-310044 as MBP–peptide–His-tag fusion protein ({MBP}-CLHPFLPIVSHHFCAR-{His‑tag}; disulfide 1-14 (inferred); reading uncertain)	
same level of absorbance with C4m-310044	H10A: alanine mutant of C4m-310044 as MBP–peptide–His-tag fusion protein ({MBP}-CLHPFLPIVSAHFCGR-{His‑tag}; disulfide 1-14 (inferred); reading uncertain)	
marked decrease in absorbance	I7A: alanine mutant of C4m-310044 as MBP–peptide–His-tag fusion protein ({MBP}-CLHPFLPAVSHHFCGR-{His‑tag}; disulfide 1-14 (inferred); reading uncertain)	
same level of absorbance with C4m-310044	L1A: alanine mutant of C4m-310044 as MBP–peptide–His-tag fusion protein ({MBP}-CAHPFLPIVSHHFCGR-{His‑tag}; disulfide 1-14 (inferred); reading uncertain)	
marked decrease in absorbance	L5A: alanine mutant of C4m-310044 as MBP–peptide–His-tag fusion protein ({MBP}-CLHPFAPIVSHHFCGR-{His‑tag}; disulfide 1-14 (inferred); reading uncertain)	
marked decrease in absorbance	P6A: alanine mutant of C4m-310044 as MBP–peptide–His-tag fusion protein ({MBP}-CLHPFLAIVSHHFCGR-{His‑tag}; disulfide 1-14 (inferred); reading uncertain)	
marked decrease in absorbance	S9A: alanine mutant of C4m-310044 as MBP–peptide–His-tag fusion protein ({MBP}-CLHPFLPIVAHHFCGR-{His‑tag}; disulfide 1-14 (inferred); reading uncertain)	
